The assay can be described thus: In vitro liposome fractionation assay. The settings on record: 5 μg protein, 15 minute incubation, centrifugation, SDS-PAGE. Type of assay: binding. The protocol:
FIG. 51. Recombinant tTG can associate with lipid vesicles lacking any protein content. Synthetic liposomes were prepared by extrusion and then equal amounts of this preparation were combined with either 5 μg recombinant tTG (tTG WT) or 5 μg bovine serum albumin (BSA). After a 15 minute incubation, the liposomes were pelleted by centrifugation, and the resulting supernatant (Sup) and liposome (Pellet) fractions were resolved by SDS-PAGE. The gel was then stained with Quick Blue to detect the proteins. A lane containing recombinant tTG (Rec. tTG WT) was included as a standard.
To obtain the results depicted in FIG. 51, the following procedures were used. In vitro liposome fractionation assays—Synthetic liposomes were prepared from a lipid mixture containing 35% phosphatidylethanolamine, 25% phosphatidylserine, 5% phosphatidylinositol, and 35% cholesterol re-suspended in TBSM buffer (20 mM Tris, pH 7.5, 150 mM NaCl, and 2 mM MgCl2). The lipids were extruded through an 8 micron filter, pelleted by centrifugation at 13,000 rpm for 15 minutes, and re-suspended in TBSM buffer. Equal amounts of the lipid preparation were then incubated with either recombinant wild-type tTG or BSA for 15 minutes, followed by centrifugation at 13,000 rpm for 10 minutes at room temperature. […]

B1: tTG WT: purified recombinant wild-type tissue transglutaminase (protein, UniProt P21980 2-687, looked up)
Protein-glutamine …: AEELVLERCDLELETNGRDHHTADLCREKLVVRRGQPFWLTLHFEGRNYEASVDSLTFSVVTGPAPSQEAGTKARFPLRDAVEEGDWTATVVDQQDCTLSLQLTTPANAPIGLYRLSLEASTGYQGSSFVLGHFILLFNAWCPADAVYLDSEEERQEYVLTQQGFIYQGSAKFIKNIPWNFGQFEDGILDICLILLDVNPKFLKNAGRDCSRRSSPVYVGRVVSGMVNCNDDQGVLLGRWDNNYGDGVSPMSWIGSVDILRRWKNHGCQRVKYGQCWVFAAVACTVLRCLGIPTRVVTNYNSAHDQNSNLLIEYFRNEFGEIQGDKSEMIWNFHCWVESWMTRPDLQPGYEGWQALDPTPQEKSEGTYCCGPVPVRAIKEGDLSTKYDAPFVFAEVNADVVDWIQQDDGSVHKSINRSLIVGLKISTKSVGRDEREDITHTYKYPEGSSEEREAFTRANHLNKLAEKEETGMAMRIRVGQSMNMGSDFDVFAHITNNTAEEYVCRLLLCARTVSYNGILGPECGTKYLLNLNLEPFSEKSVPLCILYEKYRDCLTESNLIKVRALLVEPVINSYLLAERDLYLENPEIKIRILGEPKQKRKLVAEVSLQNPLPVALEGCTFTVEGAGLTEEQKTVEIPDPVEAGEEVKVRMDLLPLHMGLHKLVVNFESDKLKAVKGFRNVIIGPA
With B1, the “protein pelleted with synthetic liposomes” value is “nearly all”.
